This is an account of results in US20180214569A1 (Regeneron, published 2018).

The labels stand for the following.
B1: H1H15404P (antibody, V domains shown)
VH: QVQLQESGPGLVKPSETLSLTCTVSGGSISGYFWGWIRQTPGKGLEWIGYIFYSGSTHYNPSFKSRVTMSVDTSKNQFALKLRSVTAADTAKYYCSRQREYYGSGNYRYFGMDVWGQGTTVTVSS
VL: AIQMTQSPSSLSASVGERVTITCRASQDIRDDLGWYQQRPGKAPNLLIYAASSLHSGVPSRFSGSGSGTDFTLTISSLQPEDFATYYCLQDYNYPWTFGQGTKVEIK
B2: H1H15410P (antibody, V domains shown)
VH: QVQLQESGPGLVKPSETLSLTCTVSGGSISGYFWGWVRQPPGKGLEWIGYIFYSGSTNYNPSLKSRITLSVDTSKNQFSLKLSSVTAADTAIYYCARHREYYGSGNYRYYALDVWGQGTTVTVSS
VL: B1 VL with E17D, D28G, R39K, N45K, H55Q, Y94F, W96L
B3: H1H15414P (antibody, V domains shown)
VH: EVQLVESGGDLVQPGGSLRLSCAASGFTFSSFEMNWVRQAPGKGLEWVSYISSSGSTIYYADSVKDRFTVSRDKDKNSLYLQMNSLRAEDTAVYYCARGSWNQPYFDYWGQGTLVTVSS
VL: DIQMTQSPSTLSASVGDRVTITCRASQSISSWLAWYQLKPGKAPKVLIYKASSLESGVPSRFSGSGSGTEFTLTINSLQPDDFATYYCQQYNSWTFGQGTKVEIK
B4: H1H15375P (antibody, V domains shown)
VH: QVQLVESGGGGVQPGRSLRLSCEASGFTFSDYGMQWVRQAPGKGLEWVAVIWDDGRKKYYADSVKGRFTVSRDNSKNTLYLEINSLRVEDTAVYYCAREGSSSSGRYFLYGMDVWGQGTTVTVSS
VL: DIQMTQSPSSLSASVGDRVTITCRASQRISSYLNWYQQKLGKAPKLLISVASSLQSGVPSRFSGSGSGTDFTLTISSLQPEDFGIYYCQQSYNTPPWTFGQGTKVEIK
B5: H1H15399P (antibody, V domains shown)
VH: EVQLVESGGGLVQPGGSLRLSCAASGFTFSSSAMSWVRQAPGKGLEWVSTLNVGADSTFYAGSVRGRFTISRDNSKNTLFLQMNSLRAEDTAVYYCAKDWGGIPYYYYYYGMDVWGQGTTVTVSS
VL: DIQLTQSPSFLSASVGDRVTITCWASQGISSYLAWYQQKPGKAPNLLIYTASTLQSGVPSRFSGSGSGTEFTLTISSLQPEDFATYYCQQLNSYPLTFGGGTKVEIK
B6: H1H15377P (antibody, V domains shown)
VH: EVQLVESGGGLVQPGGSLRLSCAASGFTFTSYEMNWVRQAPGKGLEWISYISSGGDTKYYADSVRGRFTISRDNAKNSLYLQMNSLRAEDTALYYCARDVLNWVFDYWGRGTLVTVSS
VL: DIQMTQSPSSLSASVGDRVTITCRASQSIGKYLNWYRQSPGKAPKLLIYATSSLQSGVPSSFSGSGSGTDFTLTISSLQPEDFATYYCQQGFRTPFTFGPGTKVDIK
B7: H1H15380P (antibody, V domains shown)
VH: QVQLQESGPGLVKPSETLSLMCTVSGGSINNYYWSWIRQPPGKGLEWIGYIYNGGITKYNPSLKSRVTISVDTSKSQISLKLNSVTAADTAFYYCTKEQLERREGHIWFDPWGQGTLVTVSS
VL: DIQMTQSPSSLSASVGDRVTITCRASQTINNYLNWYHQKPGKAPKLLIYGTSSLQSGVPSRFSGSGSGTEFALTISSLQPEDFATYYCQQSSSTPYTFGQGTKLEIK
B8: H1H15378P (antibody, V domains shown)
VH: EVQLVESGGGLVQPGGSLRLSCAASGFTFNNYEMNWVRQAPGKGLEWVSFISSSGSTIDYAVSVKGRFTISRDNAKNSLYLQMNSLRPGDTAVYYCARARLDFYYYGMDVWGQGTTVTVSS
VL: DIQMTQSPSSLSASVGDRVTITCRASQGISNYLAWFQQKPGKAPKSLIYATSTLQSGVPSKFSGSGSGTDFTLTISSLQPEDFATYYCQQYNSFPLTFGGGTKVEIK
B9: H1H15379P (antibody, V domains shown)
VH: EVQLVESGGGLVQPGWSLRLSCAASGFTFDDYAMHWVRQAPGKGLEWVSGISWNSDDIDYTDSVKGRFTVSRDNAKNSLYLQMNSLRADDTAFYYCVRQRVRGYYYFGMDVWGQGTTVTVSS
VL: B8 VL with K45M, T51A, T53S, F94Y, L96F, G100P, E105D
B10: H1H15408P (antibody, V domains shown)
VH: EVQLVESGGGLVQPGGSLRLSCAASGFTFSRYDMSWVRQAPGKGLEWVSAISYSGDSTYYADSVQGRFTISRDNSKNTLYLQMNSLRAEDTALYHCAKDNGYSGTYYYYYGMDVWGQGTTVTVSS
VL: B8 VL with S46F, T51A, T53S, F94Y, L96Y, G100Q, V104L
B11: H1H15405P (antibody, V domains shown)
VH: EVQLVESGGGLVQPGGSLRLSCGASGFTFSYYWMTWVRQAPGKGLEWVANINQDGSEKFYVDSVRGRFTISRDNAKKSLYLQMNSLRAEDTAVYYCARDGYCSSIGCYNLYGMDVWGQGTTVTVSS
VL: DIQMTQSPSSLSASVGDRVTITCRASQNINKYLNWYQQKPGQAPKLLIYTTSSLQSGVPSRFSGSGSGTDFTLTISSLQPEDFATYSCQQSYNSPLTFGGGTKVEIK

Residue numbers refer to the chain shown, from its start.

The target of the first experiment is S. aureus delta toxin (Staphylococcus aureus, UniProt P0C1V1 1-26). Briefly: ELISA, plate coated with toxin component.
Description: (§1) MaxiSorp microtiter plates were coated overnight with 10 μg/mL of individual F-components of S. aureus bicomponent toxins per well. Recombinant toxin components were either obtained from IBT BioServices (Gaithersburg, Md.) or generated by GenScript (Piscataway Township, N.J.). […] Wells were washed 3 times and then incubated with 100 ng/mL anti-human HRP secondary antibody per well for one hour at 25° C. 100 μL of SuperSignal ELISA Pico Chemiluminescent Substrate, (ThermoFisher Scientific) was added to the wells and signal was detected (Victor X3 plate reader, Perkin Elmer). Luminescence values were analyzed by a three-parameter logistic equation over an 11-point response curve (GraphPad Prism). Isotype-matched irrelevant control antibody and S. aureus delta toxin were included as controls.
As for B1, the binding result is on record as “no binding (tested: titration 50 uM-100 pM)”.

B2: the binding result was “no binding (tested: titration 50 uM-100 pM)”.

As to B3, the binding result was “no binding (tested: titration 50 uM-100 pM)”.

On to B4, for which the binding result is reported as “no binding (tested: titration 50 uM-100 pM)”.

Turning to B5, the binding result is “no binding (tested: titration 50 uM-100 pM)”.

For the molecule B6, the binding result is on record as “no binding (tested: titration 50 uM-100 pM)”.

In the case of B7, the binding result is reported as “no binding (tested: titration 50 uM-100 pM)”.

Consider B8, for which the binding result is listed as “no binding (tested: titration 50 uM-100 pM)”.

On to B9, for which the binding result is “no binding (tested: titration 50 uM-100 pM)”.

Regarding B10, the binding result is on record as “no binding (tested: titration 50 uM-100 pM)”.

B11: the binding result is given as “no binding (tested: titration 50 uM-100 pM)”.

For another experiment, the target named is T1, HlgB (GS) (Staphylococcus aureus, UniProt P0A077 26-325).
T1 sequence: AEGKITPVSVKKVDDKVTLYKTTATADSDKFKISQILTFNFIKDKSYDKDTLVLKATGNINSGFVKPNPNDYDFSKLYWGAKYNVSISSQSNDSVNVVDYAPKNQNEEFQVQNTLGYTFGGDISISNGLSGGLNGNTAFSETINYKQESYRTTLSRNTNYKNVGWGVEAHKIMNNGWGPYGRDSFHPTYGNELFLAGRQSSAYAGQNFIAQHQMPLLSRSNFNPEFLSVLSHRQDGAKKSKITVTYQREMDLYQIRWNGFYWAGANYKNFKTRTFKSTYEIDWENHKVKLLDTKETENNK
Description: ELISA, plate coated with toxin component.
Description: as §1
On to B1, for which the binding result was “no binding (tested: titration 50 uM-100 pM)”.

With B2, the binding result is given as “no binding (tested: titration 50 uM-100 pM)”.

B3: the binding result is “no binding (tested: titration 50 uM-100 pM)”.

In the case of B5, the binding result is on record as “no binding (tested: titration 50 uM-100 pM)”.

B6: the binding result is reported as “no binding (tested: titration 50 uM-100 pM)”.

Consider B7, for which the binding result was “no binding (tested: titration 50 uM-100 pM)”.

With B8, the binding result is on record as “no binding (tested: titration 50 uM-100 pM)”.

With B9, the binding result is “no binding (tested: titration 50 uM-100 pM)”.

As for B10, the binding result is listed as “no binding (tested: titration 50 uM-100 pM)”.

As to B11, the binding result was “no binding (tested: titration 50 uM-100 pM)”.

The target of a further experiment is T2, LukD (GS) (Staphylococcus aureus, UniProt O54082 27-327).
T2 sequence: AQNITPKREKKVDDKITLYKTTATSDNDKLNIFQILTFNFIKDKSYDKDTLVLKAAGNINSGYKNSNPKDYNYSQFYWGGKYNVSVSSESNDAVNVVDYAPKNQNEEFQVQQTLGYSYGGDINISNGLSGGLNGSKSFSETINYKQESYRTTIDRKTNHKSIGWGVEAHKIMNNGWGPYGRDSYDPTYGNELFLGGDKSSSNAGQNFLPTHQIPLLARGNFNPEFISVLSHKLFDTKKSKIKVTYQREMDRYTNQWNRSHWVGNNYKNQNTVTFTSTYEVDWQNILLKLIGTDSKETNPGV
Briefly: ELISA, plate coated with toxin component.
Description: as §1
Take B1: the binding result is “no binding (tested: titration 50 uM-100 pM)”.

B2: the binding result is “no binding (tested: titration 50 uM-100 pM)”.

With B3, the binding result is on record as “no binding (tested: titration 50 uM-100 pM)”.

In the case of B5, the binding result was “no binding (tested: titration 50 uM-100 pM)”.

For B6, the binding result is given as “no binding (tested: titration 50 uM-100 pM)”.

Consider B7, for which the binding result was “no binding (tested: titration 50 uM-100 pM)”.

Regarding B8, the binding result is “no binding (tested: titration 50 uM-100 pM)”.

Regarding B9, the binding result is “no binding (tested: titration 50 uM-100 pM)”.

Regarding B10, the binding result was “no binding (tested: titration 50 uM-100 pM)”.

As to B11, the binding result is recorded as “no binding (tested: titration 50 uM-100 pM)”.
